Consider 6 substances from patent US7083949.

What all share (assay): cell-based or functional assay
Assay [1] has as its target human IL-13 (human) (UniProt P35225).
The target in assay [2] is human IL-4 (human) (UniProt P05112).
For assay [3], the target named is recombinant human IL-13 (E. coli) (human) (UniProt P35225).
Assay [4] deals with human IL-6 (human) (UniProt P05231).
Assay [5] has as its target recombinant human IL-1 (human).

human IL-4 (human), sequence (P05112 25-153 limits assumed): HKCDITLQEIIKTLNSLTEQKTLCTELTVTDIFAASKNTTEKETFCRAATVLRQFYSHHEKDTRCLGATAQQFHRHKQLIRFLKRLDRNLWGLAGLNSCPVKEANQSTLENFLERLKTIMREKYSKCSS
human IL-13 (human), sequence (P35225 35-146 limits assumed): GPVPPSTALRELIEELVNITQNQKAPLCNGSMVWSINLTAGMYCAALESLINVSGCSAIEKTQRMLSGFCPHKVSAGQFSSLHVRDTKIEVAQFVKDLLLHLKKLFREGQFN
human IL-6 (human), sequence (P05231 30-212 limits assumed): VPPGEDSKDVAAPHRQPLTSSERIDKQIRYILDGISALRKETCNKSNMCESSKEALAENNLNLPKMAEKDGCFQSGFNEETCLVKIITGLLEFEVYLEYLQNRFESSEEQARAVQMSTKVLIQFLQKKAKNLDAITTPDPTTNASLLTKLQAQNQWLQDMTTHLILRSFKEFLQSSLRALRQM
recombinant human IL-13 (E. coli) (human), sequence (P35225 35-146 limits assumed): as the sequence (P35225 35-146 limits assumed) above

As to IL-13Rα1.IL-4Rα.Fc (Fc fusion), in assay [1], the TF1 cell proliferation (MTS); IL-13 concentration at which growth is inhibited by 50% with 10 nM Trap lay within 4 to 5 nM and the TF1 cell proliferation (MTS); highest IL-13 concentration blocked by 10 nM Trap was 2 nM. In assay [2], this substance displayed a TF1 cell proliferation (MTS); IL-4 concentration at which growth is inhibited by 50% with 10 nM Trap of 3 to 4 nM and a TF1 cell proliferation (MTS); highest IL-4 concentration blocked by 10 nM Trap of 1 nM.
As for IL-4/IL-13 Trap 1132 (Fc fusion), in assay [3], the IC50, TF1 cell proliferation with 15 pM IL-13 (E. coli; Preprotech), MTS came out at 64 pM.
For gp130-Fc homodimer (Fc fusion), the inhibition of IL-6-dependent proliferation of XG-1 cells (MTT) (fold molar excess over IL-6) in assay [4] was > 1000.
For IL-4Rα.IL-13Rα1.Fc (Fc fusion), in assay [1], the TF1 cell proliferation (MTS); IL-13 concentration at which growth is inhibited by 50% with 10 nM Trap lay within 4 to 5 nM and the TF1 cell proliferation (MTS); highest IL-13 concentration blocked by 10 nM Trap was found to be 2 nM. In assay [2], this substance had a TF1 cell proliferation (MTS); IL-4 concentration at which growth is inhibited by 50% with 10 nM Trap of 3 to 4 nM and a TF1 cell proliferation (MTS); highest IL-4 concentration blocked by 10 nM Trap of 1 nM.
Regarding “gp130-Fc-CNTFRα-Fc ligand Trap (Fc fusion)”, in assay [4], the inhibition of IL-6-dependent proliferation of XG-1 cells (MTT) (fold molar excess over IL-6) was > 1000.
In the case of human IL-1 Trap (Fc fusion), the serum IL-6 in mice after injection of human IL-1 (in vivo) (fold molar excess) in assay [5] was found to be 150.
